What was measured:
Assay in all cases: ELISA, 48A2 (2 µg/ml) immobilised, chimera added, streptavidin-HRP
[1] = target: T1, LS1 (aa1-98) llama-human c-Met chimera (Llama glama; human, UniProt P08581 123-933)
T1 construct: range 1-98 (mature numbering, E=1);range 99-909 (mature numbering, E=1; derived); not shown: Flag and strep tag
Description: (§1) An ELISA was run to investigate the binding of the mAbs to the different chimeras.

[2] = target: T2, LS2 (aa1-199) llama-human c-Met chimera (Llama glama; human, UniProt P08581 224-933)
T2 construct: range 1-199 (mature numbering, E=1);range 200-909 (mature numbering, E=1; derived); not shown: Flag and strep tag
T2 sequence (P08581 224-933, change not shown): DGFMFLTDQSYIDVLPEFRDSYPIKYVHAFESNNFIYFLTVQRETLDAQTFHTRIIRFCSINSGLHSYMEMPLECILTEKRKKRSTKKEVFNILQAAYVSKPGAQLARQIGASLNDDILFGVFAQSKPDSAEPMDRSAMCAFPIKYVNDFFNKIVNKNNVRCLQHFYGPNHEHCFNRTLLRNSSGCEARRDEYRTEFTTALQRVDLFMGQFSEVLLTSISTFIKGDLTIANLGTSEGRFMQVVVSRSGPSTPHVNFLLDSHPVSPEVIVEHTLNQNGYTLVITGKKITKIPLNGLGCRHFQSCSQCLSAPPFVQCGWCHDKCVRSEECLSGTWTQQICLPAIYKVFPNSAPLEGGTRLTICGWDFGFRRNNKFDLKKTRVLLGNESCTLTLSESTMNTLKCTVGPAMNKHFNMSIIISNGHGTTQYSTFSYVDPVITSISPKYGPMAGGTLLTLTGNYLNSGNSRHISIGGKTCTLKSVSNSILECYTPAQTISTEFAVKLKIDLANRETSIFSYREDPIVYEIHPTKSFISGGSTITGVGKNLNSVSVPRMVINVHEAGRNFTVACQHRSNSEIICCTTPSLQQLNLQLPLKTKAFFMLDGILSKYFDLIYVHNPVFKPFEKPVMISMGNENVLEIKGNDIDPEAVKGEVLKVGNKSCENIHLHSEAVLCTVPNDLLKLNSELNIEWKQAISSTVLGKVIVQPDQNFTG
Description: as §1

[3] = target: T3, LS3 (aa1-287) llama-human c-Met chimera (Llama glama; human, UniProt P08581 312-933)
T3 construct: range 1-287 (mature numbering, E=1);range 288-909 (mature numbering, E=1; derived); not shown: Flag and strep tag
T3 sequence (P08581 312-933, change not shown): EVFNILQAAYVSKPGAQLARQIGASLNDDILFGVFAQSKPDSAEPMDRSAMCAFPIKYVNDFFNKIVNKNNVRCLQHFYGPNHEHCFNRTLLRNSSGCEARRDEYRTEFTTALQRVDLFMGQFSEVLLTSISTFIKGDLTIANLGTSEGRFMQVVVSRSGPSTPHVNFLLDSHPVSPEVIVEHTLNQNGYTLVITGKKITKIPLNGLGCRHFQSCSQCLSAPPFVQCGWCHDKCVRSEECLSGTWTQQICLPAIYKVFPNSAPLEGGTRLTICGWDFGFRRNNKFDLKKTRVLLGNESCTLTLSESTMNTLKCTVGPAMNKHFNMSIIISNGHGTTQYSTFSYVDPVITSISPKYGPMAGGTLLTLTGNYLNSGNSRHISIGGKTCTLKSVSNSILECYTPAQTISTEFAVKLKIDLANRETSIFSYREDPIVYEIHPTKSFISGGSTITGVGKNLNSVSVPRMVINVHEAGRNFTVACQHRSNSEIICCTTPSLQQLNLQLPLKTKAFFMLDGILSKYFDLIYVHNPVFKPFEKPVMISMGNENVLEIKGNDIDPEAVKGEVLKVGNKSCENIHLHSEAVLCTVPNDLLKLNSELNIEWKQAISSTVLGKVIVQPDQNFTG
Description: as §1

[4] = target: T4, LS4 (aa1-348) llama-human c-Met chimera (Llama glama; human, UniProt P08581 373-933)
T4 construct: range 1-348 (mature numbering, E=1);range 349-909 (mature numbering, E=1; derived); not shown: Flag and strep tag
T4 sequence (P08581 373-933, change not shown): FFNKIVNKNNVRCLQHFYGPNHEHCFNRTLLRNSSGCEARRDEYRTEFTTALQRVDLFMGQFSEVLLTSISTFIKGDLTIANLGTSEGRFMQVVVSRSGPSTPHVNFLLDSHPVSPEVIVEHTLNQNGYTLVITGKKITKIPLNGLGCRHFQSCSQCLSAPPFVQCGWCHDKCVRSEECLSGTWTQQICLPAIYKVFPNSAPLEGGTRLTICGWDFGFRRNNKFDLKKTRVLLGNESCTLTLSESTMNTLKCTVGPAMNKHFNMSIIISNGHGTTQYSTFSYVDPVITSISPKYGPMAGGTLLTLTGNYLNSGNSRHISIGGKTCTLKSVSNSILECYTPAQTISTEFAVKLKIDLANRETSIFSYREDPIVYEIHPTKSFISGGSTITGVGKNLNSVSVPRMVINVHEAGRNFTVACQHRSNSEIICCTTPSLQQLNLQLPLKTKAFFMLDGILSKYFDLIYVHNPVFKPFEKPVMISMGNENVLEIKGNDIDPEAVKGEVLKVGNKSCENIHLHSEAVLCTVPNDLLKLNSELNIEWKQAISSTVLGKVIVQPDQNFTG
Description: as §1

[5] = target: T5, LS5 (aa1-448) llama-human c-Met chimera (Llama glama; human, UniProt P08581 473-933)
T5 construct: range 1-448 (mature numbering, E=1);range 449-909 (mature numbering, E=1; derived); not shown: Flag and strep tag
T5 sequence (P08581 473-933, change not shown): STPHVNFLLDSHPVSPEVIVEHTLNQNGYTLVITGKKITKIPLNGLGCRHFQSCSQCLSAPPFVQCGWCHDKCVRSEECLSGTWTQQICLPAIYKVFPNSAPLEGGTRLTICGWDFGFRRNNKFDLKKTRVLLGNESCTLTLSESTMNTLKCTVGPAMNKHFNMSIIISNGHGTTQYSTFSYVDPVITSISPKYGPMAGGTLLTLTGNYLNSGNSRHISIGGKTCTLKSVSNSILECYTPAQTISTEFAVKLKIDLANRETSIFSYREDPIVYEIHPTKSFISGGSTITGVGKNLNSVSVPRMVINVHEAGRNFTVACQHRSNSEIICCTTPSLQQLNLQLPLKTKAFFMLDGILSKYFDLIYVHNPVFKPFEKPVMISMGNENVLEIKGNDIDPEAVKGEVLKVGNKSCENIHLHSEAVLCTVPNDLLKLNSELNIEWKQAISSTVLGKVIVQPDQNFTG
Description: as §1

[6] = target: T6, LI8 (aa540-909) llama-human c-Met chimera (human; Llama glama, UniProt P08581 25-563)
T6 construct: range 1-539 (mature numbering, E=1; derived);range 540-909 (mature numbering, E=1); also called Ll8; not shown: Flag and strep tag
Description: as §1

[7] = target: T7, LI9 (aa572-909) llama-human c-Met chimera (human; Llama glama, UniProt P08581 25-595)
T7 construct: range 1-571 (mature numbering, E=1; derived);range 572-909 (mature numbering, E=1); also called Ll9; not shown: Flag and strep tag
T7 sequence (P08581 25-595, change not shown): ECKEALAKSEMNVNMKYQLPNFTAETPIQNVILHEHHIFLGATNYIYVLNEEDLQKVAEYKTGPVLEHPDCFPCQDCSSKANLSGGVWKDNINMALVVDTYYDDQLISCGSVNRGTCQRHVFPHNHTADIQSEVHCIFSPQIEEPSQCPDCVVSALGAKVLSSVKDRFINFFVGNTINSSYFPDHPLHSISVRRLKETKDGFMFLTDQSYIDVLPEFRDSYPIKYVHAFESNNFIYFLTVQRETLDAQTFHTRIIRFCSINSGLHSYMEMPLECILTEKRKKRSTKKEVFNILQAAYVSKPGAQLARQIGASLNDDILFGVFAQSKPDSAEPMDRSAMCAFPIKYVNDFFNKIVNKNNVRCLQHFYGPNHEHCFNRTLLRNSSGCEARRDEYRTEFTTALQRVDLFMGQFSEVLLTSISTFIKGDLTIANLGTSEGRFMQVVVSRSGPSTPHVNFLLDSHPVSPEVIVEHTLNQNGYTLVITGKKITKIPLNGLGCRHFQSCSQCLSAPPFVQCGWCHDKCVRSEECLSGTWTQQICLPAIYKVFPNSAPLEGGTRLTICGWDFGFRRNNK
Description: as §1

[8] = target: T8, LI10 (aa608-909) llama-human c-Met chimera (human; Llama glama, UniProt P08581 25-631)
T8 construct: range 1-607 (mature numbering, E=1; derived);range 608-909 (mature numbering, E=1); also called Ll10; not shown: Flag and strep tag
T8 sequence (P08581 25-631, change not shown): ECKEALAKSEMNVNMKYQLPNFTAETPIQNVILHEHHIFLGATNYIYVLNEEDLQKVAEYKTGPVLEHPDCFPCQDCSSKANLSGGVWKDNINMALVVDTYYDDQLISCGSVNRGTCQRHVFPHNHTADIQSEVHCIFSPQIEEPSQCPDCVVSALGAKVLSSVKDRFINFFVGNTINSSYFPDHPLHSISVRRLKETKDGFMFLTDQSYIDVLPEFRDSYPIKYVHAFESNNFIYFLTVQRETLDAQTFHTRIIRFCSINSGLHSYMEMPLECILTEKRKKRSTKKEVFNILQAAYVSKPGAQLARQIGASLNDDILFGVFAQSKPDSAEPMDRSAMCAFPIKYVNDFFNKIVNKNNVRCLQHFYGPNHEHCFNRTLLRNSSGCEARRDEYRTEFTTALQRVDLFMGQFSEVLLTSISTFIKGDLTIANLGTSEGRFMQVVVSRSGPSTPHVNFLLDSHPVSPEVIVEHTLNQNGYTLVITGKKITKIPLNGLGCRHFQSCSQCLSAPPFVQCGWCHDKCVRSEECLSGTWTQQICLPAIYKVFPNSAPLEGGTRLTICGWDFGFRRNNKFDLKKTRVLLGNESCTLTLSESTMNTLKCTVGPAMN
Description: as §1

[9] = target: T9, LI11 (aa634-909) llama-human c-Met chimera (human; Llama glama, UniProt P08581 25-657)
T9 construct: range 1-633 (mature numbering, E=1; derived);range 634-909 (mature numbering, E=1); also called Ll11; not shown: Flag and strep tag
T9 sequence (P08581 25-657, change not shown): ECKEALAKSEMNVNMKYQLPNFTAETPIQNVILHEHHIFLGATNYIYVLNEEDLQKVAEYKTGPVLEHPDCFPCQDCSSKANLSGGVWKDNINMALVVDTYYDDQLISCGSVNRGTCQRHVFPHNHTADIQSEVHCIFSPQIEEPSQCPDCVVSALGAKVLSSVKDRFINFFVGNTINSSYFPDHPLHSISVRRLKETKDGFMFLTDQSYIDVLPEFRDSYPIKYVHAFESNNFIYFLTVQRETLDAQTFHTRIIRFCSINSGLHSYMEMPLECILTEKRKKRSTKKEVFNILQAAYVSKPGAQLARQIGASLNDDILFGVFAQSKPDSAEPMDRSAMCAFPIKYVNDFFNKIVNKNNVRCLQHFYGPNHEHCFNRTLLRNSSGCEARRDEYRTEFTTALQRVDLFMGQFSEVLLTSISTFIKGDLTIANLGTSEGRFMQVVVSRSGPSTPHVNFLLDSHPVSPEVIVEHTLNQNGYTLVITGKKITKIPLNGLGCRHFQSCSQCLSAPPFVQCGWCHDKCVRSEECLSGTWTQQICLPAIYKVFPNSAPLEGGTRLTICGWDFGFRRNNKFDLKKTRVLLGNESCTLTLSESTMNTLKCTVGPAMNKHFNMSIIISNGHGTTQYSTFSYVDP
Description: as §1

T1 sequence (P08581 123-933, change not shown): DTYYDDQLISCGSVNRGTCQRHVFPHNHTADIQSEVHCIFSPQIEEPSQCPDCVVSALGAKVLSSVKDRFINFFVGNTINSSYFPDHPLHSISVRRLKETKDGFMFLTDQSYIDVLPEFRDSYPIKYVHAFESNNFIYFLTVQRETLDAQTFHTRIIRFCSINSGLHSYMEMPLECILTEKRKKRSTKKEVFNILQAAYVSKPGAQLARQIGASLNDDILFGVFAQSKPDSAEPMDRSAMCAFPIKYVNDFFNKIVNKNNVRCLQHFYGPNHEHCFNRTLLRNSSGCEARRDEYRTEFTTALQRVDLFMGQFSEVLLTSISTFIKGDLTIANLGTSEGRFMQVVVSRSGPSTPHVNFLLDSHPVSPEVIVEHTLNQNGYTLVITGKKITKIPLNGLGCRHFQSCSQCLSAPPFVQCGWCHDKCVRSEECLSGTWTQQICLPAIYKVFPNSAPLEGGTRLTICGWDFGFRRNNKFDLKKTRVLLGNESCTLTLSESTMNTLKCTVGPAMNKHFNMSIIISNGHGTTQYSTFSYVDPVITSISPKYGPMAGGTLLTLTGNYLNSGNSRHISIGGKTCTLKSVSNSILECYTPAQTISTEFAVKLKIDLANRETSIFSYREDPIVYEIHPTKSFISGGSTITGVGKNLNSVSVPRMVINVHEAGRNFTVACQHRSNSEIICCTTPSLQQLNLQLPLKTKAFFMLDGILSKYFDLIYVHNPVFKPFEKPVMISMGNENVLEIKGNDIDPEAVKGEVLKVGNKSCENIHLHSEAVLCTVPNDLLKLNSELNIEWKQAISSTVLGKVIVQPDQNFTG

EC50 [1]: 0.031 µg/mL
EC50 [2]: 0.034 µg/mL
EC50 [3]: 0.05 µg/mL
EC50 [4]: 0.07 µg/mL
EC50 [5]: 0.05 µg/mL
EC50 [6]: > 0.04 µg/mL
EC50 [7]: > 0.04 µg/mL
EC50 [8]: > 0.04 µg/mL
EC50 [9]: 0.042 µg/mL
B1: 48A2 mAb (antibody, V domains shown)
VH: EVQLVQPGVELRNPGASVKVSCKASGYIFTMNSIDWVRQAPGQGLEWMGRIDPEDGGTKYAQKFQGRVTFTADTSTSTAYVELNSLRSEDTAVYYCARVDDYYLGYDYWGQGTQVTVSS
VL: DIVMTQTPTSVTASAGDKVTINCKSSQSVLFSSNQKNYLAWYQQRLGQSPRLLIYWASIRESGVPDRFSGSGSATDFTLTISNFQPEDAAVYYCQQGYSFPYSFGSGTRLEIR
